Measured values published in US20230015291.

Target: rabbit skeletal muscle actin protein (Cytoskeleton, Denver, Colo., Catalog #AKL99-A), P68135

B1: recombinant wild-type human DNase1 (protein)
chain: LKIAAFNIQTFGETKMSNATLVSYIVQILSRYDIALVQEVRDSHLTAVGKLLDNLNQDAPDTYHYVVSEPLGRNSYKERYLFVYRPDQVSAVDSYYYDDGCEPCGNDTFNREPAIVRFFSRFTEVREFAIVPLHAAPGDAVAEIDALYDVYLDVQEKWGLEDVMLMGDFNAGCSYVRPSQWSSIRLWTSPTFQWLIPDSADTTATPTHCAYDRIVVAGMLLRGAVVPDSALPFNFQAAYGLSDQLAQAISDHYPVEVMLK
Which “nuclease activity, SYTOX Green fluorescence assay (RFU over time), 4.5 nM enzyme with or without 40 ug/ml actin” value does the source give for B1 here?
The value was “The nuclease activity of the recombinant human DNase1 was inhibited by actin”.
